# Assay results: US20240307560A1, “HEPTAMETHINE CARBOCYANINE DYE-DOTA CONJUGATES COMPLEXED WITH LUTETIUM-177, YTTRIUM-90, OR GALLIUM-68, AND THEIR USES FOR IMAGE-GUIDED RADIOTHERAPY” (priority 2020, published 2024)
# Key:
# in vivo = assay: in vivo; design: species or system Balb/C mice; conditions: Balb/C, mouse, iv
# Procedure: DZ-1-Lys-DOTA-^68Ga (50 μCi) probe was injected into the tail vein of Balb/C mice (n=6, each about 20 g of body weight). Approximately 10 μL of blood from the contralateral tail vein was collected in capillary tubes at 2 min, 5 min, 15 min, 30 min, 1 h, 2 h and 4.5 h post probe injection. The capillaries were placed in pre-weighed tubes to measure the weight and radioactivity of the blood withdrawn. Radioactivity from each sample was measured by a gamma counter with radioactivity decay corrected to the time of probe injection, normalized for injected dose and blood weight, and expressed as percentage injected dose per gram blood (FIG. 2). Each animal was i.v. injected 50 μCi of the probe.
# DZ-1-Lys-DOTA-^177Lu (50 μCi) was injected into the tail vein of Balb/C mice (n=6, about 20 g). Approximately 10 μL of blood from the contralateral tail vein was collected in capillary tubes at 2 min, 5 min, 15 min, 30 min, 1 h, 2 h and 6 h post probe injection. The capillaries were placed in pre-weighed tubes to measure the weight and radioactivity of the blood withdrawn. Radioactivity from each sample was measured by a gamma counter with the radioactivity decay corrected to the time of probe injection, normalized for injected dose and blood weight, and expressed as percentage injected dose per gram blood.
# [1] = assay type: in vitro ADME, Bovine; conditions: for half-life (stability in serum): bovine
# Procedure: DZ-1-Lys-DOTA-^68Ga was incubated with Fetal Bovine Serum (FBS) at 37° C., and the stability of DZ-1-Lys-DOTA-^68Ga was analyzed by radio-TLC with 0.1M citric acid as eluent.
# The % purity is a marker for stability, with a higher purity indicating a higher stability.
# The DZ-1-Lys-DOTA-^177Lu was incubated with Fetal Bovine Serum (FBS) at 37° C., and the probe was analyzed by radio-TLC with 0.1M citric acid as eluent (see FIG. 3). Stability is determined by the percentage of the labeled compound (radiochemical purity).
# The DZ-1-Lys-DOTA-^90Y was incubated with Fetal Bovine Serum (FBS) (V:V=2:1) at 37° C. and the probe was analyzed by radio-TLC with 0.1M citric acid as eluent.
# [2] = system: MDA-MB-231 breast cancer cells; assay: Cytotoxicity study, CCK-8; conditions: for % cell viability: human
# Procedure: The MDA-MB-231 breast cancer cells were pre-seeded into 96-well plates (10^4 cells/well), and placed in a 37° C., 5% CO2 incubator until the cells were fully attached. Serially diluted DZ-1-Lys-DOTA-^90Y (100 μL) was added to each well (7 concentrations diluted from 20 μCi in half), and 3 replicate wells for each concentration point. After 24 and 48 hours of treatment, the supernatant was discarded, and 10 μL of CCK-8 solution and 100 μL of medium were added to each well. The culture was continued for 1 h in the incubator, and the absorbance of each well at 450 nm was measured with a microplate reader.
# [3] = 50 uCi, total radioactivity, Normalized radioactivity in blood (% ID/g)
compound,measurement,setting,value
"CC1(C)C(/C=C/C2=C(Cl)C(=C/C=C3/N(CCCCCC(=O)NCCCCC(NC(=O)CN4CCN(CC(=O)O)CCN(CC(=O)O)CCN(CC(=O)O)CC4)C(=O)O)c4ccccc4C3(C)C)/CCC2)=[N+](CCCCS(=O)(=O)[O-])c2ccccc21 (single isomer, unassigned) [DZ-1-Lys-DOTA-68Ga, metal not drawn]",elimination half-life for blood clearance (T1/2),in vivo,30 min
same,Normalized radioactivity in blood (% ID/g),"in vivo; 50 uCi, 0.25 h",1.13 % ID/g
same,Normalized radioactivity in blood (% ID/g),"in vivo; 50 uCi, 0.5 h",0.97 % ID/g
same,Normalized radioactivity in blood (% ID/g),"in vivo; 50 uCi, 1 h",0.80 % ID/g
same,Normalized radioactivity in blood (% ID/g),"in vivo; 50 uCi, 2 h",0.70 % ID/g
same,tissue uptake at 2 min,in vivo; [3],1.83 %ID/g
same,tissue uptake at 5 min,in vivo; [3],1.44 %ID/g
same,tissue uptake at 4.5 h,in vivo; [3],0.5 %ID/g
same,tissue uptake,"in vivo; 50 uCi, total radioactivity, normalized radioactivity in blood (D/g)",~1.8 %ID/g
"CC1(C)C(/C=C/C2=C(Cl)C(=C/C=C3/N(CCCCCC(=O)NCCCCC(NC(=O)CN4CCN(CC(=O)O)CCN(CC(=O)O)CCN(CC(=O)O)CC4)C(=O)O)c4ccccc4C3(C)C)/CCC2)=[N+](CCCCS(=O)(=O)[O-])c2ccccc21 (single isomer, unassigned) [DZ-1-Lys-DOTA-90Y, metal not drawn]",retention (radiochemical purity),[1],about 30%
same,half-life (stability in serum),[1],about 240 min
same,breast cancer cells caused to die,"[2]; 20 μCi, within 48 hours",80%
same,cancer cell killing compared to free 90Y (in words),"[2]; 48 h, 20 microCi",kills MDA-MB-231 triple-negative breast cancer cells more effectively
same,% cell viability,"[2]; 48 h, 0.3125 μCi",43.92%
same,% cell viability,"[2]; 48 h, 0.625 μCi",42.08%
same,% cell viability,"[2]; 48 h, 1.25 μCi",41.50%
same,% cell viability,"[2]; 48 h, 2.5 μCi",39.63%
same,% cell viability,"[2]; 48 h, 5 μCi",35.57%
same,% cell viability,"[2]; 48 h, 10 μCi",35.46%
same,% cell viability,"[2]; 48 h, 20 μCi",19.21%
"CC1(C)C(/C=C/C2=C(Cl)C(=C/C=C3/N(CCCCCC(=O)NCCCCC(NC(=O)CN4CCN(CC(=O)O)CCN(CC(=O)O)CCN(CC(=O)O)CC4)C(=O)O)c4ccccc4C3(C)C)/CCC2)=[N+](CCCCS(=O)(=O)[O-])c2ccccc21 (single isomer, unassigned) [DZ-1-Lys-DOTA-177Lu, metal not drawn]",retention (radiochemical purity),[1],about 30%
same,half-life (stability in serum),[1],about 700 min
same,elimination half-life for blood clearance (T1/2),in vivo,15 min
same,Normalized radioactivity in blood (% ID/g),"in vivo; 50 uCi, 2 min",1.26 % ID/g
same,Normalized radioactivity in blood (% ID/g),"in vivo; 50 uCi, 5 min",0.86 % ID/g
same,Normalized radioactivity in blood (% ID/g),"in vivo; 50 uCi, 0.25 h",0.51 % ID/g
same,Normalized radioactivity in blood (% ID/g),"in vivo; 50 uCi, 0.5 h",0.43 % ID/g
same,Normalized radioactivity in blood (% ID/g),"in vivo; 50 uCi, 1 h",0.36 % ID/g
same,Normalized radioactivity in blood (% ID/g),"in vivo; 50 uCi, 2 h",0.34 % ID/g
same,tissue uptake at 6 h,in vivo; [3],0.23 %ID/g
